From patent US20240301442A1 (Regeneron, published 2024) come the findings set out here.

Values joined by “and” are separate entries in the source; they are usually repeats but may differ in a detail not shown here. Equal entries are not always repeated.

In test [1] the target is PcrV of P. aeruginosa strain 6077 (on live bacteria) (Pseudomonas aeruginosa strain 6077). The test can be described thus: cell-based or functional assay.
In test [2] the target is recombinant full-length P. aeruginosa PcrV (GenScript) (Pseudomonas aeruginosa).
The target in test [3] is Zika virus envelope (Env) protein on MR766 virus (Zika virus MR766, UniProt Q32ZE1 291-790). Nature of the test: cell-based or functional assay.
A further test concerns the target T1, Zika (prM80E)-mmh (Zika virus).
T1 construct: domain: prM80E; also called Zika envelope protein; Lot #REGN4233-L4
Nature of the test: ELISA, Zika (prM80E)-mmh coated, mouse serum, anti-human IgG HRP detection. A general note: In an ELISA, binding on a coated surface is turned into a signal by an enzyme label.

B1: REGN4446 anti-Zika antibody expressed in mouse serum from episomal AAV2/8.CASI.REGN4446 HC T2A RORss LC (antibody, V domains shown)
VH: QVQLVESGGGVVQPGRSLRLSCAASGFTFNYYGMHWVRQAPGKGLEWVAVISYDGTNKYYADSVKGRFTTSRDNSKNTLYLQMNSLRAEDTALYYCARDRGGRFDYWGQGIQVTVSS
VL: EIVLTQSPDTLSLSPGERATLSCRASQSVSSNYLAWYQQKPGQAPRLLIYGASSRATGIPDRFSGSGSGTDFTLTISRLEPEDFAVYYCQRYGTSPLTFGGGTKVEIKR
notes: also called CASI HC T2A RORss LC; AAV2/8.CASI.REGN4446 HC T2A LC
Take B1: the “Neutralization IC50” value in test [1] is about 8.89 pM. Also, the EC50 in test [2] is 204 nM; in the test with Zika (prM80E)-mmh, 0.296 nM and 0.521 nM. Moreover, the “Neutralization EC50” value in test [3] is 469 pM and 605 pM.

One may read the EC50 as the concentration giving half of the maximal effect.
